Patent US20220267796A1

Key:
[1] = target: AAV8 (recombinant adeno-associated virus serotype 8 particles, capsid of VP1, VP2 and VP3 of AAV8) (adeno-associated virus 8 (AAV8)); test: affinity chromatography on AAVX column, +18-26° C., 125 mM NaCl/50 mM TrisHCl pH 8.5; AAV8 ELISA of fraction (load 23.2 x 10^11 cp/ml)
[2] = target: AAV9 (recombinant adeno-associated virus serotype 9 particles, capsid of VP1, VP2 and VP3 of AAV9) (adeno-associated virus 9 (AAV9)); test: batch adsorption, 0.2 g resin + 9.6 g LOAD, 15 to 16 h at +2° C. to +8° C.; AAV9 ELISA of supernatant
[3] = target: AAV9 (recombinant adeno-associated virus serotype 9 particles, capsid of VP1, VP2 and VP3 of AAV9) (adeno-associated virus 9 (AAV9)); test: affinity chromatography on AAVX column, +22-28° C., 100 mM NaAcetate/0.1% Tween 80 pH 6.0; AAV9 ELISA of fraction
[4] = target: AAV9 (recombinant adeno-associated virus serotype 9 particles, capsid of VP1, VP2 and VP3 of AAV9) (adeno-associated virus 9 (AAV9)); test: batch adsorption at room temperature, then 30 min in 1 ml cold 125 mM NaCl/50 mM Tris HCl pH 8.5 at +2° C. to +8° C.; AAV9 ELISA of supernatant
[5] = target: AAV9 (recombinant adeno-associated virus serotype 9 particles, capsid of VP1, VP2 and VP3 of AAV9) (adeno-associated virus 9 (AAV9)); test: affinity chromatography on AAVX column, elution at +2-8° C. with 100 mM NaAcetate/0.1% Tween 80 pH 6.0; AAV9 ELISA of fraction
[6] = target: AAV9 (recombinant adeno-associated virus serotype 9 particles, capsid of VP1, VP2 and VP3 of AAV9) (adeno-associated virus 9 (AAV9)); test: affinity chromatography on AAVX column, gradient 1 mM to 20 mM HCl/200 mM NaCl at +2-8° C.; AAV9 ELISA of fraction
[7] = target: AAV9 (recombinant adeno-associated virus serotype 9 particles, capsid of VP1, VP2 and VP3 of AAV9) (adeno-associated virus 9 (AAV9)); test: affinity chromatography on AAVX column, +22-28° C., 125 mM NaCl/50 mM TrisHCl pH 8.5; AAV9 ELISA of fraction
[8] = target: AAV9 (recombinant adeno-associated virus serotype 9 particles, capsid of VP1, VP2 and VP3 of AAV9) (adeno-associated virus 9 (AAV9)); test: affinity chromatography on AAVX column, +22-28° C., 125 mM NaCl/50 mM TrisHCl pH 8.5; AAV9 ELISA of fraction (load 2.86 x 10^11 cp/ml)
[9] = target: AAV9 (recombinant adeno-associated virus serotype 9 particles, capsid of VP1, VP2 and VP3 of AAV9) (adeno-associated virus 9 (AAV9)); test: affinity chromatography on AAVX column, standard elution at +18-26° C. with 100 mM Glycine, 200 mM NaCl pH 2.7; AAV9 ELISA of fraction
[10] = target: AAV8 (recombinant adeno-associated virus serotype 8 particles, capsid of VP1, VP2 and VP3 of AAV8) (adeno-associated virus 8 (AAV8)); test: affinity chromatography on AAVX column, +18-26° C., 125 mM NaCl/50 mM TrisHCl pH 8.5; AAV8 ELISA of fraction
[11] = target: AAV8 (recombinant adeno-associated virus serotype 8 particles, capsid of VP1, VP2 and VP3 of AAV8) (adeno-associated virus 8 (AAV8)); test: affinity chromatography on AAVX column, +2-8° C., 100 mM NaAcetate/0.1% Tween 80 pH 6.0; AAV8 ELISA of fraction
[12] = target: AAV8 (recombinant adeno-associated virus serotype 8 particles, capsid of VP1, VP2 and VP3 of AAV8) (adeno-associated virus 8 (AAV8)); test: affinity chromatography on AAVX column, +2-8° C., 125 mM NaCl/50 mM TrisHCl pH 8.5; AAV8 ELISA of fraction
[13] = target: AAV8 (recombinant adeno-associated virus serotype 8 particles, capsid of VP1, VP2 and VP3 of AAV8) (adeno-associated virus 8 (AAV8)); test: affinity chromatography on AAVX column, +18-26° C., 100 mM NaAcetate/0.1% Tween 80 pH 6.0; AAV8 ELISA of fraction
[14] = target: AAV8 (recombinant adeno-associated virus serotype 8 particles, capsid of VP1, VP2 and VP3 of AAV8) (adeno-associated virus 8 (AAV8)); test: affinity chromatography on AAVX column, +2-8° C., ELT-buffer pH 7.0; AAV8 ELISA of fraction
[15] = target: AAV9 (recombinant adeno-associated virus serotype 9 particles, capsid of VP1, VP2 and VP3 of AAV9) (adeno-associated virus 9 (AAV9)); test: affinity chromatography on AAVX column, strip at +2-8° C. with 100 mM Glycine, 200 mM NaCl pH 2.0; AAV9 ELISA of fraction
[16] = target: AAV9 (recombinant adeno-associated virus serotype 9 particles, capsid of VP1, VP2 and VP3 of AAV9) (adeno-associated virus 9 (AAV9)); test: affinity chromatography on AAVX column, elution at +2-8° C. with 125 mM NaCl/50 mM TrisHCl pH 8.5; AAV9 ELISA of fraction
[17] = target: AAV9 (recombinant adeno-associated virus serotype 9 particles, capsid of VP1, VP2 and VP3 of AAV9) (adeno-associated virus 9 (AAV9)); test: batch adsorption, 0.2 g resin + 9.6 g LOAD, 15 to 16 h at +18° C. to +30° C., 125 mM NaCl/50 mM Tris HCl pH 8.5; AAV9 ELISA of supernatant
[18] = target: AAV8 (recombinant adeno-associated virus serotype 8 particles, capsid of VP1, VP2 and VP3 of AAV8) (adeno-associated virus 8 (AAV8)); test: affinity chromatography on AAVX column, gradient 1 mM to 20 mM HCl/200 mM NaCl at +2-8° C.; AAV8 ELISA of pooled fraction

## POROS CaptureSelect AAVX Affinity Resin (Cat. No. 36742; Thermo Fisher), immobilised affinity ligand
[1]
  AAV8 Antigen cp/ml in flow-through/wash 1 (not bound): < 1.59e+09 cp/ml
[2]
  % AAV9 Antigen in supernatant (not bound) after incubation at low temperature: 63.7%
[3]
  AAV9 Antigen [%] of load found in wash 2: 0.04%
  AAV9 Antigen cp/ml in wash 2: < 3.8e+09 cp/ml
  AAV9 Antigen cp/ml in wash 4: < 3.8e+09 cp/ml
[4]
  % AAV9 Antigen in eluate (released at low temperature): 36.7%
[5]
  AAV9 Antigen [%] of load released in low temperature eluate 1: 61.2%
[6]
  AAV9 Antigen [%] of load released by acidic gradient: 5.42%
[7]
  AAV9 Antigen [%] of load found in flow-through/wash 1 (not bound): 1.76%
  AAV9 Antigen [%] of load found in wash 3: 0.04%
  AAV9 Antigen cp/ml in wash 3: < 3.8e+09 cp/ml
[8]
  AAV9 Antigen cp/ml in flow-through/wash 1 (not bound): < 3.8e+09 cp/ml
[9]
  AAV9 Antigen [%] of load released by acidic elution: 81.5%
[10]
  AAV8 Antigen cp/ml in wash 3: < 1.59e+09 cp/ml
[11]
  AAV8 Antigen cp/ml in low temperature eluate 1: < 1.59e+09 cp/ml
[12]
  AAV8 Antigen cp/ml in low temperature eluate 3: < 1.59e+09 cp/ml
[13]
  AAV8 Antigen cp/ml in wash 2: < 1.59e+09 cp/ml
  AAV8 Antigen cp/ml in wash 4: < 1.59e+09 cp/ml
[14]
  AAV8 Antigen cp/ml in low temperature eluate 2: < 1.59e+09 cp/ml
[15]
  AAV9 Antigen [%] of load released only by acidic strip: 16.9%
[16]
  AAV9 Antigen [%] of load released in low temperature eluate: 44.8%
  AAV9 Antigen [%] of load released in low temperature eluate 3: 11.6%
[17]
  % AAV9 Antigen in supernatant (not bound) after incubation at room temperature: 6.2%
[18]
  AAV8 Antigen [%] of load released by acidic gradient: 75.8%
